This experiment has as its target 破伤风毒素 (Clostridium tetani, UniProt P04958 2-1315).

The source of these data is patent CN108623681A (ZHUHAI TAINUO MAIBO BIOTECHNOLOGY CO LTD; GUANGZHOU …, dated 2018).

Chain of 破伤风毒素 (P04958 2-457 limits assumed, chain 1 of 2): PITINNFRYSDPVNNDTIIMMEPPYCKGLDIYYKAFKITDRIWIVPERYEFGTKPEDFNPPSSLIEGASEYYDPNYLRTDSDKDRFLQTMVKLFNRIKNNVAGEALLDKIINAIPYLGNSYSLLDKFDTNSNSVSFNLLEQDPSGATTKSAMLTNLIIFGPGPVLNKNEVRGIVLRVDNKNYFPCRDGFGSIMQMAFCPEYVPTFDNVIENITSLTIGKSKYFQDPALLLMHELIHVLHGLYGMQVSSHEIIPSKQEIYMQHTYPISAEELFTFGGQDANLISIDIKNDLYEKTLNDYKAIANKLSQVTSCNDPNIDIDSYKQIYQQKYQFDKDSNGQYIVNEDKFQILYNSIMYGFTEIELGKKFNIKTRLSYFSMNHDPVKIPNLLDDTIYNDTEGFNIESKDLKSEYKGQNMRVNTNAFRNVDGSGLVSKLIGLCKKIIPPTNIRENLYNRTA
Chain of 破伤风毒素 (P04958 458-1315 limits assumed, chain 2 of 2): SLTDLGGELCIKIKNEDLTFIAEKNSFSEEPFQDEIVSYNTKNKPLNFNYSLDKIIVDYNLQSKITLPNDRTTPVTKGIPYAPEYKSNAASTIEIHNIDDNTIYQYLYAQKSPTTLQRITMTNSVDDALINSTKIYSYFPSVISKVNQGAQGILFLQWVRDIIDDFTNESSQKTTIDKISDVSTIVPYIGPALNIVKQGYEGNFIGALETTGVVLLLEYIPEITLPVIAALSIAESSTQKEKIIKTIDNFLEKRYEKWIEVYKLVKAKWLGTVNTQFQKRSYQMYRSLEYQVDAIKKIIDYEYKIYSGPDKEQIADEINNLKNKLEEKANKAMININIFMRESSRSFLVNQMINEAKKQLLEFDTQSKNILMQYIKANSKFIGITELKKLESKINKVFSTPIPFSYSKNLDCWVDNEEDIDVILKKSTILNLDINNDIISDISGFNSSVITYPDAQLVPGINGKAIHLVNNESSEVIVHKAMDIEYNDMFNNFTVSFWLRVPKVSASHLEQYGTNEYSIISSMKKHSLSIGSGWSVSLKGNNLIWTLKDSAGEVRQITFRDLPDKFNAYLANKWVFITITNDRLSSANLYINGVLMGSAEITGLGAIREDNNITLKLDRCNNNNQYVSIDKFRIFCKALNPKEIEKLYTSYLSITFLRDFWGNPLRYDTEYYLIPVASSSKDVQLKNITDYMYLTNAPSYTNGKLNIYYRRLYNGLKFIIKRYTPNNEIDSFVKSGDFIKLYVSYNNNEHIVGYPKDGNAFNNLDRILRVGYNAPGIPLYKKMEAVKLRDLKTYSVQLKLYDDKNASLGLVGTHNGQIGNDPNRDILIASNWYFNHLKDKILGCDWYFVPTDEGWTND

B1: 抗体TRN1015 (antibody, V domains shown)
VH: EVQLVESGGGRVKPGGSLRLSCSVSGFGIGIYTMNWVRQAPGKGLEWVSSISGTSQYIYYANSVRGRFTISRDNAENSLYLQLNNLRAEDTALYYCVSGSSLDYWGQGTLVTISS
VL: DIQLTQSPSSLSASVGGRVTITCRASQNIGTNLNWFQQKPGTAPNLLIYGASTLQSGVPSRFSGSGSGTTFTLTIDSLQPEDFATYYCYQNYNSPKTFGQGTKVDLK
By koff is commonly meant the rate constant with which the complex falls apart. A lower koff goes with a long-lived complex. Usually kon stands for a measure of how fast the partners come together. Low readings indicate slow association, high ones fast association. As to B1, the dissociation rate constant (koff) amounted to 9.4e-05 s⁻¹ and the kon was 38800 M⁻¹ s⁻¹.
